According to patent US20230002480A1:

Tests used:
Assay in all cases: cell-based or functional assay
[1] = target: HIV-1 Env of pseudovirus HIV-0013095-2.11 (HIV-1)
[2] = target: HIV-1 Env of pseudovirus BJOX025000.01.1 (HIV-1)
[3] = target: HIV-1 Env of pseudovirus 0260.v5.c36 (HIV-1)
[4] = target: HIV-1 Env of pseudovirus Ce1172_H1 (HIV-1)
[5] = target: HIV-1 Env of pseudovirus QH0692.42 (HIV-1)
[6] = target: HIV-1 Env of pseudovirus PVO.4 (HIV-1)
[7] = target: HIV-1 Env of pseudovirus ZM233M.PB6 (HIV-1)
[8] = target: HIV-1 Env of pseudovirus REJO4541.67 (HIV-1)
[9] = target: HIV-1 Env of pseudovirus HIV-001428-2.42 (HIV-1)
[10] = target: HIV-1 Env of pseudovirus MS208.A1 (HIV-1)
[11] = target: HIV-1 Env of pseudovirus TRO.11 (HIV-1)
[12] = target: HIV-1 Env of pseudovirus CAAN5342.A2 (HIV-1)
[13] = target: HIV-1 Env of pseudovirus CNE8 (HIV-1)
[14] = target: HIV-1 Env of pseudovirus C3347.c11 (HIV-1)
[15] = target: HIV-1 Env of pseudovirus 3817.v2.c59 (HIV-1)
[16] = target: HIV-1 Env of pseudovirus BJOX010000.06.2 (HIV-1)
[17] = target: HIV-1 Env of pseudovirus Q769.d22 (HIV-1)
[18] = target: HIV-1 Env of pseudovirus R3265.c06 (HIV-1)
[19] = target: HIV-1 Env of pseudovirus WEAU_d15_410_787 (HIV-1)
[20] = target: HIV-1 Env of pseudovirus 231966.c02 (HIV-1)
[21] = target: HIV-1 Env of pseudovirus Ce1176_A3 (HIV-1)
[22] = target: HIV-1 Env of pseudovirus ZM247v1(Rev-) (HIV-1)
[23] = target: HIV-1 Env of pseudovirus HIV-16845-2.22 (HIV-1)
[24] = target: HIV-1 Env of pseudovirus CNE53 (HIV-1)
[25] = target: HIV-1 Env of pseudovirus 1054_07_TC4_1499 (HIV-1)
[26] = target: HIV-1 Env of pseudovirus R1166.c01 (HIV-1)
[27] = target: HIV-1 Env of pseudovirus Ce2010_F5 (HIV-1)
[28] = target: HIV-1 Env of pseudovirus A07412M1.vrc12 (HIV-1)
[29] = target: HIV-1 Env of pseudovirus 6244_13_B5_4576 (HIV-1)
[30] = target: HIV-1 Env of pseudovirus T278-50 (HIV-1)
[31] = target: HIV-1 Env of pseudovirus Q23.17 (HIV-1)
[32] = target: HIV-1 Env of pseudovirus SC05_8C11_2344 (HIV-1)
[33] = target: HIV-1 Env of pseudovirus C1080.c03 (HIV-1)
[34] = target: HIV-1 Env of pseudovirus Ce1086_B2 (HIV-1)
[35] = target: HIV-1 Env of pseudovirus 6535.3 (HIV-1)
[36] = target: HIV-1 Env of pseudovirus BJOX028000.10.3 (HIV-1)

PGDM1400 (antibody)
IC50 [1]: 3 ng/mL | IC80 [1]: 0.012 µg/mL | IC50, titer in TZM.bl cells [2]: 0.087 µg/mL | IC80, titer in TZM.bl cells [2]: 0.573 µg/mL | IC50 [3]: 0.033 µg/mL | IC80 [3]: 0.175 µg/mL | IC50 [4]: 0.021 µg/mL | IC80 [4]: 0.06 µg/mL | IC50 [5]: > 50 µg/mL | IC80 [5]: > 50 µg/mL | IC50 [6]: 0.484 µg/mL | IC80 [6]: 6.49 µg/mL | IC50 [7]: < 0.001 µg/mL | IC80 [7]: 1 ng/mL | IC50 [8]: 0.028 µg/mL | IC80 [8]: 0.992 µg/mL | IC50 [9]: < 0.001 µg/mL | IC80 [9]: 0.027 µg/mL | IC50 [10]: < 0.001 µg/mL | IC80 [10]: 0.139 µg/mL | IC50 [11]: 0.283 µg/mL | IC80 [11]: 1.38 µg/mL | IC50 [12]: > 50000 ng/mL | IC80 [12]: > 50 µg/mL | IC50, titer in TZM.bl cells [13]: < 1 ng/mL | IC80, titer in TZM.bl cells [13]: 0.01 µg/mL | IC50, titer in TZM.bl cells [14]: 0.011 µg/mL | IC80, titer in TZM.bl cells [14]: 0.051 µg/mL | IC50, titer in TZM.bl cells [15]: > 50 µg/mL | IC80, titer in TZM.bl cells [15]: > 50 µg/mL | IC50, titer in TZM.bl cells [16]: 0.605 µg/mL | IC80, titer in TZM.bl cells [16]: 5.87 µg/mL | IC50 [17]: 2 ng/mL | IC80 [17]: 0.018 µg/mL | IC50, titer in TZM.bl cells [18]: 0.013 µg/mL | IC80, titer in TZM.bl cells [18]: 0.041 µg/mL | IC50 [19]: 0.103 µg/mL | IC80 [19]: 1.37 µg/mL | IC50, titer in TZM.bl cells [20]: 1 ng/mL | IC80, titer in TZM.bl cells [20]: 4 ng/mL | IC50 [21]: 0.587 µg/mL | IC80 [21]: 11.6 µg/mL | IC50 [22]: 0.019 µg/mL | IC80 [22]: 0.051 µg/mL | IC50 [23]: > 50 µg/mL | IC80 [23]: > 50 µg/mL | IC50 [24]: 0.077 µg/mL | IC80 [24]: 0.246 µg/mL | IC50 [25]: > 50 µg/mL | IC80 [25]: > 50 µg/mL | IC50, titer in TZM.bl cells [26]: 1.43 µg/mL | IC80, titer in TZM.bl cells [26]: 6.92 µg/mL | IC50 [27]: > 50 µg/mL | IC80 [27]: > 50 µg/mL | IC50, titer in TZM.bl cells [28]: 0.032 µg/mL | IC80, titer in TZM.bl cells [28]: 0.127 µg/mL | IC50 [29]: > 50 µg/mL | IC80 [29]: > 50 µg/mL | IC50, titer in TZM.bl cells [30]: 0.574 µg/mL | IC80, titer in TZM.bl cells [30]: 4.94 µg/mL | IC50 [31]: < 1 ng/mL | IC80 [31]: 3 ng/mL | IC50 [32]: 1.26 µg/mL | IC80 [32]: 3.59 µg/mL | IC50, titer in TZM.bl cells [33]: < 1 ng/mL | IC80, titer in TZM.bl cells [33]: < 1 ng/mL | IC50 [34]: > 50 µg/mL | IC80 [34]: > 50 µg/mL | IC50 [35]: > 50000 ng/mL | IC80 [35]: > 50000 ng/mL | IC50, titer in TZM.bl cells [36]: 0.072 µg/mL | IC80, titer in TZM.bl cells [36]: 0.963 µg/mL

PGT121 (antibody)
IC50 [1]: > 50000 ng/mL | IC80 [1]: > 50 µg/mL | IC50 [2]: > 50 µg/mL | IC80 [2]: > 50 µg/mL | IC50 [3]: 0.053 µg/mL | IC80 [3]: 0.197 µg/mL | IC80 [4]: 0.036 µg/mL | IC50 [5]: 0.302 µg/mL | IC80 [5]: 2.31 µg/mL | IC50 [6]: 0.098 µg/mL | IC80 [6]: 0.343 µg/mL | IC50 [7]: 3.69 µg/mL | IC50 [8]: 4.77 µg/mL | IC80 [8]: > 50 µg/mL | IC50 [9]: 0.014 µg/mL | IC80 [9]: 0.051 µg/mL | IC50 [10]: > 50 µg/mL | IC80 [10]: > 50 µg/mL | IC50 [11]: 0.005 µg/mL | IC80 [11]: 0.025 µg/mL | IC50 [12]: 7 ng/mL | IC80 [12]: 0.023 µg/mL | IC50 [13]: > 50 µg/mL | IC80 [13]: > 50 µg/mL | IC50 [14]: > 50 µg/mL | IC80 [14]: > 50 µg/mL | IC50 [15]: 18.9 µg/mL | IC80 [15]: > 50 µg/mL | IC50 [16]: > 50 µg/mL | IC80 [16]: > 50 µg/mL | IC50 [17]: > 50000 ng/mL | IC80 [17]: > 50 µg/mL | IC50 [18]: > 50 µg/mL | IC80 [18]: > 50 µg/mL | IC50 [19]: 0.026 µg/mL | IC80 [19]: 0.077 µg/mL | IC50 [20]: > 50 µg/mL | IC80 [20]: > 50 µg/mL | IC50 [21]: 0.013 µg/mL | IC80 [21]: 0.035 µg/mL | IC50 [22]: 0.028 µg/mL | IC80 [22]: 0.082 µg/mL | IC50 [23]: 3.97 µg/mL | IC80 [23]: 44.6 µg/mL | IC50 [24]: 0.007 µg/mL | IC80 [24]: 0.024 µg/mL | IC50 [25]: 0.064 µg/mL | IC80 [25]: 0.304 µg/mL | IC50 [26]: > 50 µg/mL | IC80 [26]: > 50 µg/mL | IC50 [27]: > 50 µg/mL | IC80 [27]: > 50 µg/mL | IC50 [28]: 9 ng/mL | IC80 [28]: 0.075 µg/mL | IC50 [29]: 0.061 µg/mL | IC80 [29]: 0.347 µg/mL | IC50 [30]: > 50 µg/mL | IC80 [30]: > 50 µg/mL | IC50 [31]: < 1 ng/mL | IC80 [31]: 5 ng/mL | IC50 [32]: 0.019 µg/mL | IC80 [32]: 0.071 µg/mL | IC50 [33]: > 50 µg/mL | IC80 [33]: > 50 µg/mL | IC50 [34]: < 0.001 µg/mL | IC80 [34]: < 0.001 µg/mL | IC50 [35]: 2 ng/mL | IC80 [35]: 8 ng/mL | IC50 [36]: > 50 µg/mL | IC80 [36]: > 50 µg/mL
